# From publication PMC9482650, “Quantitative fragmentomics allow affinity mapping of interactomes” (Nature Communications, 2022)
# T1: ARHGEF11, O15085
# T1 sequence (O15085 42-136, limits assumed, looked up): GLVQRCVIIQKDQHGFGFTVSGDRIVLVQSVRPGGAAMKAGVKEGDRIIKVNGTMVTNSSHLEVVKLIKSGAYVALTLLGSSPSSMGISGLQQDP
# T2: DFNB31_1, Q9P202
# T2 sequence (Q9P202 135-233, limits assumed, looked up): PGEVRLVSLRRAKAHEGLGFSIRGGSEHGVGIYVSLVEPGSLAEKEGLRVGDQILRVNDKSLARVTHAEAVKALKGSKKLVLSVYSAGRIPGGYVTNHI
# T3: DFNB31_2, Q9P202
# T3 sequence (Q9P202 274-371, limits assumed, looked up): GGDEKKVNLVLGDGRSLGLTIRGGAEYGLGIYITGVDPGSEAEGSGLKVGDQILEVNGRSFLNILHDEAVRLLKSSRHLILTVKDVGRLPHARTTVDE
# T4: GRIP1_3, Q9Y3R0
# T4 sequence (Q9Y3R0 247-346, limits assumed, looked up): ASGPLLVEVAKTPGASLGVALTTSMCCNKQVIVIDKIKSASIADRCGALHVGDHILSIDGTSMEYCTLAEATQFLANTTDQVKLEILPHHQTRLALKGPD
# T5: LIN7C, Q9NUP9
# T5 sequence (Q9NUP9 88-185, limits assumed, looked up): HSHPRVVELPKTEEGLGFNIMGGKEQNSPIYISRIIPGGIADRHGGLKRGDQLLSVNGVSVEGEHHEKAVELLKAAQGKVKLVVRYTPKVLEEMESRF
# T6: LNX2_3, Q8N448
# T6 sequence (Q8N448 463-564, limits assumed, looked up): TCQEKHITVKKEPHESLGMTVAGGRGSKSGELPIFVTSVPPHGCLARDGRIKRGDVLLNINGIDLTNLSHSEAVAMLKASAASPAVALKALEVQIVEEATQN
# T7: MPP2, Q14168
# T7 sequence (Q14168 180-250, limits assumed, looked up): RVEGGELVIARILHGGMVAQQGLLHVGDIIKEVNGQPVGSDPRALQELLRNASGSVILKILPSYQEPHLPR
# T8: PARD3B_1, Q8TEW8
# T8 sequence (Q8TEW8 196-299, limits assumed, looked up): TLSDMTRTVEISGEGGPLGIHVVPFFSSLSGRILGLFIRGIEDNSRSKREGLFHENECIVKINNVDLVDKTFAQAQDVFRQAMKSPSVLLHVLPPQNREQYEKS
# T9: RADIL, Q96JH8
# T9 sequence (Q96JH8 971-1071, limits assumed, looked up): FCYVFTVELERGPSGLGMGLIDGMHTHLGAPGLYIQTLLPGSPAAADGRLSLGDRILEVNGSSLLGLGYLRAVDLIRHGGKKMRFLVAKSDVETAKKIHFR
# T10: SIPA1L2, Q9P2F8
# T10 sequence (Q9P2F8 945-1036, limits assumed, looked up): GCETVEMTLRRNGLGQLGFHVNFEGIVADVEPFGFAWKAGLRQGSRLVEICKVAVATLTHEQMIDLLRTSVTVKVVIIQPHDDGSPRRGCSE
# T11: SNTG2, Q9NY99
# T11 sequence (Q9NY99 68-166, limits assumed, looked up): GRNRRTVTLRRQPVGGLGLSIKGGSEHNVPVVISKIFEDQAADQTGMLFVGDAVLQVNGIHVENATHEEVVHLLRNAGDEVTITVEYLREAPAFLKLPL
# T12: TJP3_3, O95049
# T12 sequence (O95049 375-456, limits assumed, looked up): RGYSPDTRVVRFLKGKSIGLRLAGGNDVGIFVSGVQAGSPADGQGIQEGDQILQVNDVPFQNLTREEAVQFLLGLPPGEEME
# Biological target: T1, ARHGEF11, O15085
# Experiment: holdup assay
# Design: key: below the threshold = too weak to quantify, mostly under pKd 3.1 to 4
# Conditions: plain residues with an end cap or a label only (N-terminal biotin on a linker: ado-ado)
row,Binder,pKd
1,"EPQYQPGENL [SRC, P12931]",below the threshold
2,"DGVNEKVSCV [HTR2A, P28223]",4.18

# Biological target: CASK, O14936
# Sequence (O14936 487-570): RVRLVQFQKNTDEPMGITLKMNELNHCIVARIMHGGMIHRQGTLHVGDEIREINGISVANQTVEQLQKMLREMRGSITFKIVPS
# Experiment: holdup assay
# Design: key: below the threshold = too weak to quantify, mostly under pKd 3.1 to 4
# Conditions: plain residues with an end cap or a label only (N-terminal biotin on a linker: ado-ado)
row,Binder,pKd
1,"EPQYQPGENL [SRC, P12931]",below the threshold
2,"DGVNEKVSCV [HTR2A, P28223]",below the threshold

# Biological target: T2, DFNB31_1, Q9P202
# Experiment: holdup assay
# Design: key: below the threshold = too weak to quantify, mostly under pKd 3.1 to 4
# Conditions: plain residues with an end cap or a label only (N-terminal biotin on a linker: ado-ado)
row,Binder,pKd
1,"EPQYQPGENL [SRC, P12931]",below the threshold
2,"DGVNEKVSCV [HTR2A, P28223]",below the threshold

# Biological target: T3, DFNB31_2, Q9P202
# Experiment: holdup assay
# Design: key: below the threshold = too weak to quantify, mostly under pKd 3.1 to 4
# Conditions: plain residues with an end cap or a label only (N-terminal biotin on a linker: ado-ado)
row,Binder,pKd
1,"EPQYQPGENL [SRC, P12931]",below the threshold
2,"DGVNEKVSCV [HTR2A, P28223]",below the threshold

# Biological target: DLG1_2, Q12959
# Sequence (Q12959 314-412): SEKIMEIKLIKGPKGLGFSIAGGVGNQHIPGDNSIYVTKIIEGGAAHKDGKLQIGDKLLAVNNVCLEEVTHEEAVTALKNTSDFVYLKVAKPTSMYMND
# Experiment: holdup assay
# Design: key: below the threshold = too weak to quantify, mostly under pKd 3.1 to 4
# Conditions: plain residues with an end cap or a label only (N-terminal biotin on a linker: ado-ado)
row,Binder,pKd
1,"EPQYQPGENL [SRC, P12931]",below the threshold
2,"DGVNEKVSCV [HTR2A, P28223]",4.82

# Biological target: DLG5_1, Q8TDM6
# Sequence (Q8TDM6 617-713): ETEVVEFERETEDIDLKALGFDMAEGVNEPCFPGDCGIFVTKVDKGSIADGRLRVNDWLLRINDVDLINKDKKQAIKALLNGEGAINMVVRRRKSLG
# Experiment: holdup assay
# Design: key: below the threshold = too weak to quantify, mostly under pKd 3.1 to 4
# Conditions: plain residues with an end cap or a label only (N-terminal biotin on a linker: ado-ado)
row,Binder,pKd
1,"EPQYQPGENL [SRC, P12931]",below the threshold
2,"DGVNEKVSCV [HTR2A, P28223]",below the threshold

# Biological target: FRMPD2_1, Q68DX3
# Sequence (Q68DX3 770-861): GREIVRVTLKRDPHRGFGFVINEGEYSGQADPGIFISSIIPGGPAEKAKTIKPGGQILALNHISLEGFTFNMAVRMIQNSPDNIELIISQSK
# Experiment: holdup assay
# Design: key: below the threshold = too weak to quantify, mostly under pKd 3.1 to 4
# Conditions: plain residues with an end cap or a label only (N-terminal biotin on a linker: ado-ado)
row,Binder,pKd
1,"EPQYQPGENL [SRC, P12931]",below the threshold
2,"DGVNEKVSCV [HTR2A, P28223]",below the threshold

# Biological target: FRMPD3, Q5JV73
# Sequence (Q5JV73 12-100): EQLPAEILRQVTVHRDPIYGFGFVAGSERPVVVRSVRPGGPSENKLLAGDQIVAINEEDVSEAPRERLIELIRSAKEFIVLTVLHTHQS
# Experiment: holdup assay
# Design: key: below the threshold = too weak to quantify, mostly under pKd 3.1 to 4
# Conditions: plain residues with an end cap or a label only (N-terminal biotin on a linker: ado-ado)
row,Binder,pKd
1,"EPQYQPGENL [SRC, P12931]",below the threshold
2,"DGVNEKVSCV [HTR2A, P28223]",below the threshold

# Biological target: GIPC2, Q8TF65
# Sequence (Q8TF65 112-203): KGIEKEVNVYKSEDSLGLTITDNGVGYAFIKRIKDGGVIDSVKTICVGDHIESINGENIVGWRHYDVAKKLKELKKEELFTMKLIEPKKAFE
# Experiment: holdup assay
# Design: key: below the threshold = too weak to quantify, mostly under pKd 3.1 to 4
# Conditions: plain residues with an end cap or a label only (N-terminal biotin on a linker: ado-ado)
row,Binder,pKd
1,"EPQYQPGENL [SRC, P12931]",below the threshold
2,"DGVNEKVSCV [HTR2A, P28223]",below the threshold

# Biological target: T4, GRIP1_3, Q9Y3R0
# Experiment: holdup assay
# Design: key: below the threshold = too weak to quantify, mostly under pKd 3.1 to 4
# Conditions: plain residues with an end cap or a label only (N-terminal biotin on a linker: ado-ado)
row,Binder,pKd
1,"EPQYQPGENL [SRC, P12931]",below the threshold
2,"DGVNEKVSCV [HTR2A, P28223]",below the threshold

# Biological target: GRIP2_7, Q9C0E4
# Sequence (Q9C0E4 934-1023): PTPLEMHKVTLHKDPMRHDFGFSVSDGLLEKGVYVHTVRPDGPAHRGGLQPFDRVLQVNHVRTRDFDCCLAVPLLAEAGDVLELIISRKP
# Experiment: holdup assay
# Design: key: below the threshold = too weak to quantify, mostly under pKd 3.1 to 4
# Conditions: plain residues with an end cap or a label only (N-terminal biotin on a linker: ado-ado)
row,Binder,pKd
1,"EPQYQPGENL [SRC, P12931]",below the threshold
2,"DGVNEKVSCV [HTR2A, P28223]",below the threshold

# Biological target: Inadl_5, Q8NI35
# Sequence (Q8NI35 673-780): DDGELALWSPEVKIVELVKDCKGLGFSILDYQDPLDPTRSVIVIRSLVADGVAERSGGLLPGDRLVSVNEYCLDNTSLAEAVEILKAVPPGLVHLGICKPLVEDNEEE
# Experiment: holdup assay
# Design: key: below the threshold = too weak to quantify, mostly under pKd 3.1 to 4
# Conditions: plain residues with an end cap or a label only (N-terminal biotin on a linker: ado-ado)
row,Binder,pKd
1,"EPQYQPGENL [SRC, P12931]",below the threshold
2,"DGVNEKVSCV [HTR2A, P28223]",below the threshold

# Biological target: T5, LIN7C, Q9NUP9
# Experiment: holdup assay
# Design: key: below the threshold = too weak to quantify, mostly under pKd 3.1 to 4
# Conditions: plain residues with an end cap or a label only (N-terminal biotin on a linker: ado-ado)
row,Binder,pKd
1,"EPQYQPGENL [SRC, P12931]",below the threshold
2,"DGVNEKVSCV [HTR2A, P28223]",3.78

# Biological target: T6, LNX2_3, Q8N448
# Experiment: holdup assay
# Design: key: below the threshold = too weak to quantify, mostly under pKd 3.1 to 4
# Conditions: plain residues with an end cap or a label only (N-terminal biotin on a linker: ado-ado)
row,Binder,pKd
1,"EPQYQPGENL [SRC, P12931]",below the threshold
2,"DGVNEKVSCV [HTR2A, P28223]",below the threshold

# Biological target: MAGI1_2, Q96QZ7
# Sequence (Q96QZ7 456-580): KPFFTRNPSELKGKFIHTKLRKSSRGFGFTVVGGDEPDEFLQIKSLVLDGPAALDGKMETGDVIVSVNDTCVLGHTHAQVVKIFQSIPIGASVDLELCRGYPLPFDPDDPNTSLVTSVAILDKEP
# Experiment: holdup assay
# Design: key: below the threshold = too weak to quantify, mostly under pKd 3.1 to 4
# Conditions: plain residues with an end cap or a label only (N-terminal biotin on a linker: ado-ado)
row,Binder,pKd
1,"EPQYQPGENL [SRC, P12931]",below the threshold
2,"DGVNEKVSCV [HTR2A, P28223]",below the threshold

# Biological target: MAGI2_2, Q86UL8
# Sequence (Q86UL8 410-522): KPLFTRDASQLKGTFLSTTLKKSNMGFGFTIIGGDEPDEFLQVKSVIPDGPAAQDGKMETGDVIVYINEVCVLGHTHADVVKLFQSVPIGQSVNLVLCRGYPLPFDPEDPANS
# Experiment: holdup assay
# Design: key: below the threshold = too weak to quantify, mostly under pKd 3.1 to 4
# Conditions: plain residues with an end cap or a label only (N-terminal biotin on a linker: ado-ado)
row,Binder,pKd
1,"EPQYQPGENL [SRC, P12931]",below the threshold
2,"DGVNEKVSCV [HTR2A, P28223]",4.15

# Biological target: MAGI2_4, Q86UL8
# Sequence (Q86UL8 772-865): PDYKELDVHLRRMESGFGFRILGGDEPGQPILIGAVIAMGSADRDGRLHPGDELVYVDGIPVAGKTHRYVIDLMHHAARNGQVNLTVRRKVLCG
# Experiment: holdup assay
# Design: key: below the threshold = too weak to quantify, mostly under pKd 3.1 to 4
# Conditions: plain residues with an end cap or a label only (N-terminal biotin on a linker: ado-ado)
row,Binder,pKd
1,"EPQYQPGENL [SRC, P12931]",below the threshold
2,"DGVNEKVSCV [HTR2A, P28223]",3.72

# Biological target: MAST1, Q9Y2H9
# Sequence (Q9Y2H9 962-1065): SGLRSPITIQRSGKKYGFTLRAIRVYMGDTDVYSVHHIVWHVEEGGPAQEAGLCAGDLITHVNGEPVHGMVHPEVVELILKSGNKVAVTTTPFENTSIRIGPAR
# Experiment: holdup assay
# Design: key: below the threshold = too weak to quantify, mostly under pKd 3.1 to 4
# Conditions: plain residues with an end cap or a label only (N-terminal biotin on a linker: ado-ado)
row,Binder,pKd
1,"EPQYQPGENL [SRC, P12931]",4.18
2,"DGVNEKVSCV [HTR2A, P28223]",3.65

# Biological target: T7, MPP2, Q14168
# Experiment: holdup assay
# Design: key: below the threshold = too weak to quantify, mostly under pKd 3.1 to 4
# Conditions: plain residues with an end cap or a label only (N-terminal biotin on a linker: ado-ado)
row,Binder,pKd
1,"EPQYQPGENL [SRC, P12931]",below the threshold
2,"DGVNEKVSCV [HTR2A, P28223]",below the threshold

# Biological target: T8, PARD3B_1, Q8TEW8
# Experiment: holdup assay
# Design: key: below the threshold = too weak to quantify, mostly under pKd 3.1 to 4
# Conditions: plain residues with an end cap or a label only (N-terminal biotin on a linker: ado-ado)
row,Binder,pKd
1,"EPQYQPGENL [SRC, P12931]",3.91
2,"DGVNEKVSCV [HTR2A, P28223]",below the threshold

# Biological target: T9, RADIL, Q96JH8
# Experiment: holdup assay
# Design: key: below the threshold = too weak to quantify, mostly under pKd 3.1 to 4
# Conditions: plain residues with an end cap or a label only (N-terminal biotin on a linker: ado-ado)
row,Binder,pKd
1,"EPQYQPGENL [SRC, P12931]",below the threshold
2,"DGVNEKVSCV [HTR2A, P28223]",4.53

# Biological target: T10, SIPA1L2, Q9P2F8
# Experiment: holdup assay
# Design: key: below the threshold = too weak to quantify, mostly under pKd 3.1 to 4
# Conditions: plain residues with an end cap or a label only (N-terminal biotin on a linker: ado-ado)
row,Binder,pKd
1,"EPQYQPGENL [SRC, P12931]",below the threshold
2,"DGVNEKVSCV [HTR2A, P28223]",below the threshold

# Biological target: T11, SNTG2, Q9NY99
# Experiment: holdup assay
# Design: key: below the threshold = too weak to quantify, mostly under pKd 3.1 to 4
# Conditions: plain residues with an end cap or a label only (N-terminal biotin on a linker: ado-ado)
row,Binder,pKd
1,"EPQYQPGENL [SRC, P12931]",below the threshold
2,"DGVNEKVSCV [HTR2A, P28223]",3.69

# Biological target: TJP1_2, Q07157
# Sequence (Q07157 181-274): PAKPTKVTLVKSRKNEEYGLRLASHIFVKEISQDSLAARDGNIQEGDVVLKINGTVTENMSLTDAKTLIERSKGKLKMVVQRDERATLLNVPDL
# Experiment: holdup assay
# Design: key: below the threshold = too weak to quantify, mostly under pKd 3.1 to 4
# Conditions: plain residues with an end cap or a label only (N-terminal biotin on a linker: ado-ado)
row,Binder,pKd
1,"EPQYQPGENL [SRC, P12931]",below the threshold
2,"DGVNEKVSCV [HTR2A, P28223]",below the threshold

# Biological target: TJP2_1, Q9UDY2
# Sequence (Q9UDY2 24-128): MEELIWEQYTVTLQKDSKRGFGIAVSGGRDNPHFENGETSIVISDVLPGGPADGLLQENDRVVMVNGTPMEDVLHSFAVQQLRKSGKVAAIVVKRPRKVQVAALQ
# Experiment: holdup assay
# Design: key: below the threshold = too weak to quantify, mostly under pKd 3.1 to 4
# Conditions: plain residues with an end cap or a label only (N-terminal biotin on a linker: ado-ado)
row,Binder,pKd
1,"EPQYQPGENL [SRC, P12931]",below the threshold
2,"DGVNEKVSCV [HTR2A, P28223]",3.82

# Biological target: T12, TJP3_3, O95049
# Experiment: holdup assay
# Design: key: below the threshold = too weak to quantify, mostly under pKd 3.1 to 4
# Conditions: plain residues with an end cap or a label only (N-terminal biotin on a linker: ado-ado)
row,Binder,pKd
1,"EPQYQPGENL [SRC, P12931]",below the threshold
2,"DGVNEKVSCV [HTR2A, P28223]",below the threshold
